Patent US20250353912A1 (NEW YORK UNIVERSITY, published 2025)
Residue numbers refer to the chain shown, from its start.

B1: OEA2-21 (antibody, V domains shown)
VH: EVQLVESGGGLVQPGGSLRLSCAASGFTFSSSYIHWVRQAPGKGLEWVASISPSYGYTSYADSVKGRFTISADTSKNTAYLQMNSLRAEDTAVYYCARDMYEWWHWAIDYWGQGTLVTVSS
VL: DIQMTQSPSSLSASVGDRVTITCRASQSVSSAVAWYQQKPGKAPKLLIYSASSLYSGVPSRFSGSRSGTDFTLTISSLQPEDFATYYCQQSSWGGLVTFGQGTKVEIKR
notes: phage-display clone
B2: OEA2-1 (antibody, V domains shown)
VH: EVQLVESGGGLVQPGGSLRLSCAASGFTFSSSSIHWVRQAPGKGLEWVASISSSSGSTSYADSVKGRFTISADTSKNTAYLQMNSLRAEDTAVYYCARYYGYVWGGYWGWWYSKALDYWGQGTLVTVSS
VL: DIQMTQSPSSLSASVGDRVTITCRASQSVSSAVAWYQQKPGKAPKLLIYSASSLYSGVPSRFSGSRSGTDFTLTISSLQPEDFATYYCQQSSSSLITFGQGTKVEIKR
notes: phage-display clone
B3: AMRA311-17 (antibody, human IgG1, V domains shown)
VH: EVQLVESGGGLVQPGGSLRLSCAASGFTISSSSIHWVRQAPGKGLEWVASISSYSGSTYYADSVKGRFTISADTSKNTAYLQMNSLRAEDTAVYYCARYPYGSHVYTGLDYWGQGTLVTVSS
VL: B2 VL
notes: phage-display clone; purified as human IgG1/kappa; also called AMRA311-17 hIgG1
B4: OEA2-16 (antibody, V domains shown)
VH: EVQLVESGGGLVQPGGSLRLSCAASGFTFSSSSIHWVRQAPGKGLEWVASISSSSGSTSYADSVKGRFTISADTSKNTAYLQMNSLRAEDTAVYYCARSPSSPYFMSWGWYWQYGIDYWGQGTLVTVSS
VL: B2 VL
notes: phage-display clone
B5: P2AMR-1 in the human IgG1 format (antibody, V domains shown)
VH: QVQLVQSEPEVKKPGSSVKLSCKASGGTFSTDAITWVRQAPGQGLEYMGGIIPLLDSVDYAQRFQGRVTVSADKSTGTAYMEVRSLGSEDTAKYYCAKWSSVDTGLDYWGQGTLVTVSS
VL: QSVLIQPRSVSGSPGQSVTISCTGTSSDVGGYNYVSWYQQHPGKAPKLMIYDVSKRPSGVPDRFSGSKSGNTASLTVSGLQAEDEADYYCGSYADTDTIVFGTGTKLTVL
notes: human IgG1; also called P2AMR-1 IgG
B6: OEA2-12 (antibody, V domains shown)
VH: EVQLVESGGGLVQPGGSLRLSCAASGFTIYSSSIHWVRQAPGKGLEWVASISSYYGYTSYADSVKGRFTISADTSKNTAYLQMNSLRAEDTAVYYCARYQYYGSLYYSQQWAMDYWGQGTLVTVSS
VL: DIQMTQSPSSLSASVGDRVTITCRASQSVSSAVAWYQQKPGKAPKLLIYSASSLYSGVPSRFSGSRSGTDFTLTISSLQPEDFATYYCQQYDWNYYLVTFGQGTKVEIKR
notes: phage-display clone
B7: AMRA3-7 (antibody, human IgG1, V domains shown)
VH: EVQLVESGGGLVQPGGSLRLSCAASGFTFSSYSIHWVRQAPGKGLEWVASIYSSYGYTSYADSVKGRFTISADTSKNTAYLQMNSLRAEDTAVYYCARGGWYPAMDYWGQGTLVTVSS
VL: B6 VL with Y91I, D92S, W93Y, N94V, Y96S, V98I
notes: phage-display clone; purified as human IgG1/kappa; also called AMRA3-7 hIgG1
B8: AMRA3-18 (antibody, human IgG1, V domains shown)
VH: EVQLVESGGGLVQPGGSLRLSCAASGFTVSYSSIHWVRQAPGKGLEWVASISSSSGYTSYADSVKGRFTISADTSKNTAYLQMNSLRAEDTAVYYCARYAWWAHGLDYWGQGTLVTVSS
VL: B6 VL with Y91G, D92S, W93Y, N94T, Y96R, V98I
notes: phage-display clone; purified as human IgG1/kappa; also called AMRA3-18 hIgG1

Legend:
[1] = target: T1, HLA-A*02:01 in complex with the EGFR peptide … conjugated with osimertinib (human, osimertinib covalently bound to Cys); assay: phage display selection; MBBA
T1 construct: also called HLA-A*02:01_EGFR-osimertinib; osimertinib-EGFR/HLA-A*02

[2] = target: T2, HLA-A*11:01 in complex with the KRAS (wild type) peptide … (human); assay: MBBA titration of purified IgG (FIG. 11)
T2 construct: also called HLA-A*11:01_WTRAS

[3] = target: T3, HLA-A*03:01 in complex with the KRAS (wild type) peptide … (human); assay: MBBA titration of purified IgG (FIG. 11)
T3 construct: also called HLA-A*03:01_WTRAS

[4] = target: T3, HLA-A*03:01 in complex with the KRAS …; assay: flow cytometry on peptide-loaded Raji cells (FIG. 16)

| Binder | binding result [1] | binding result [2] | binding result [3] | further results |
| --- | --- | --- | --- | --- |
| B1 | binds |  |  |  |
| B2 | binds |  |  |  |
| B3 |  | no binding | no binding |  |
| B4 | binds |  |  |  |
| B5 |  |  |  | binding result [4]: no binding |
| B6 | binds |  |  |  |
| B7 |  | no binding | no binding |  |
| B8 |  | no binding | no binding |  |
